{
  "source": "patent US20170121425A1",
  "about": "(ACADEMIA SINICA, published 2017)",
  "binders": {"B1": {"name": "chimeric 8D6 antibody (antibody, V domains shown)", "VH": "QVQLQQSGAELAKPGASVMLSCKASGYTFNGYWMHWVKQRPGQDLEWIGYINPTTGHTEYNQKFKDKATLTADESSNTAYIELSSLTSDDSAVYYCARQEYRHSWFAYWGQGTLVTVSA", "VL": "DIVLTQSPASLAVSLGQRATISCKASQSVDYDGDTYMNWYHQKPGQPPKLLIYAASNLDSGIPARFSGSGSGTDFTLNIHPVEEEDAATYYCQQTNEDPWTFGGGTKLEIK", "notes": "c8D6 is the chimeric form of 8D6 with human constant regions (detected with anti-human IgG-Fc); also called parent c8D6 antibody; HRP-conjugated c8D6"}},
  "key": {"[1]": {"target": "T1, mIgE.FcL (CH2-cytoplasmic tail of the long form of human membrane ε chain) on Ramos cells (human, UniProt P01854 104-546, limits assumed)", "T1 construct": "domain: CH2-cytoplasmic tail of the long form of membrane ε chain; also called mIgE.FcL Ramos", "T1 sequence (P01854 104-546 limits assumed, form in doubt)": "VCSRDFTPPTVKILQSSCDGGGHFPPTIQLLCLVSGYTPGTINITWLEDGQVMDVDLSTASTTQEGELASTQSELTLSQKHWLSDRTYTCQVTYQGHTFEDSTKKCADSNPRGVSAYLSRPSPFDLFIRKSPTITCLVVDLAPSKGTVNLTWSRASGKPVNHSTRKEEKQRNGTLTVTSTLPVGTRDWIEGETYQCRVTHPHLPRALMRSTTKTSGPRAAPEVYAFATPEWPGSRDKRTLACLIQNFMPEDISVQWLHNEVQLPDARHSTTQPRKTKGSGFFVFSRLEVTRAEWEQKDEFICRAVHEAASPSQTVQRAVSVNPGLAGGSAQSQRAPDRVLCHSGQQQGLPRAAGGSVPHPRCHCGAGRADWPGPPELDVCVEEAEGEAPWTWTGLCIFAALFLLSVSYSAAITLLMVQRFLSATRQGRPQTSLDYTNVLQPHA", "test": "flow cytometry on mIgE.FcL-expressing Ramos cells, FITC anti-human IgG-Fc detection, geometric mean intensity", "description": "(§1) Ramos cells expressing mIgE.FcL or mIgE.FcS were resuspended in FACS buffer (1% FBS and 0.1% sodium azide in 1×PBS) at a cell density of 2×10⁶ cells/mL. […] Bound antibodies were detected by FITC-labeled goat IgG specific for human IgG-Fc (Caltag Laboratories). The stained cells were analyzed on a FACS Canto II flow cytometer (BD Biosciences). The geometric means of fluorescence intensity for the binding of antibodies to Ramos cell lines were analyzed using the FCSExpress software (DeNono software). The EC₅₀ was calculated using the Prism software."}, "[2]": {"target": "Fc region of human IgE (ε.Fc 2-4), Ser226 to Gly599, N265Q and N371Q (human) (UniProt P01854)", "sequence (P01854 106-427, stated change not applied)": "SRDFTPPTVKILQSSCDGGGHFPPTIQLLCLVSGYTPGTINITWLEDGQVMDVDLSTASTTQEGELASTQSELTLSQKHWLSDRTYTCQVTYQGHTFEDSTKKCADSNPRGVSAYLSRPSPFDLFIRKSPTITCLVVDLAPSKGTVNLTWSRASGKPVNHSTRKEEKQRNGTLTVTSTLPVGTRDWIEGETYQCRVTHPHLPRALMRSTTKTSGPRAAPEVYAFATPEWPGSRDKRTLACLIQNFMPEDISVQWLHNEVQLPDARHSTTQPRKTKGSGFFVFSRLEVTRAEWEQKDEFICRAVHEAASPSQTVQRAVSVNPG", "test": "competition ELISA on coated ε.Fc 2-4; competitor HRP-conjugated c8D6 at fixed dilution, unconjugated antibody titrated"}, "[3]": {"target": "Fc region of human IgE (ε.Fc 2-4), Ser226 to Gly599, N265Q and N371Q (human) (UniProt P01854)", "test": "ELISA, ε.Fc 2-4 coated on the plate, antibody titrated, OD450"}, "[4]": {"target": "T2, mIgE.FcS (CH2-cytoplasmic tail of the short form of human membrane ε chain) on Ramos cells (human, UniProt P01854-3 104-494, limits assumed)", "T2 construct": "domain: CH2-cytoplasmic tail of the short form of membrane ε chain; also called mIgE.FcS Ramos", "T2 sequence (P01854 other isoform, or with tags, fused parts or gaps limits assumed)": "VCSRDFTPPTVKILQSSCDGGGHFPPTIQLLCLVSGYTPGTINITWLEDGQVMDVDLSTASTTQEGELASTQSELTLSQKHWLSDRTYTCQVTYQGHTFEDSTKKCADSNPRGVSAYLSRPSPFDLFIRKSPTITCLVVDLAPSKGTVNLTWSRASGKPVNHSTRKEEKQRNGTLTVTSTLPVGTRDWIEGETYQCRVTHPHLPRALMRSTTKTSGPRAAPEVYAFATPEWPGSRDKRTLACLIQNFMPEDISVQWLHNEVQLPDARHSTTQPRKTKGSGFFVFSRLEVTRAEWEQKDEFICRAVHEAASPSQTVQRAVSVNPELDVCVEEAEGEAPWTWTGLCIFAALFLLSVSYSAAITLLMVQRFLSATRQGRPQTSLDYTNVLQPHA", "test": "flow cytometry on mIgE.FcS-expressing Ramos cells; c8D6, not hu8D6", "description": "as §1"}, "[5]": {"target": "Fc region of human IgE (ε.Fc 2-4), Ser226 to Gly599, N265Q and N371Q (human) (UniProt P01854)", "test": "ELISA, ε.Fc 2-4 coated, antibody titrated"}, "[6]": {"target": "T2, mIgE.FcS (CH2-cytoplasmic tail of the …)", "test": "flow cytometry on mIgE.FcS-expressing Ramos cells, FITC anti-human IgG-Fc detection, geometric mean intensity", "description": "as §1"}, "[7]": {"target": "Fc region of human IgE (ε.Fc 2-4), Ser226 to Gly599, N265Q and N371Q (human) (UniProt P01854)", "test": "competitive ELISA on coated ε.Fc 2-4; competitor HRP-conjugated c8D6"}},
  "data": [
    {"binder": "B1", "values": [
      {"measurement": "EC50 (read off the curve)", "setting": "[1]", "result": "~0.03", "unit": "µg/mL"},
      {"measurement": "IC50 (read off the curve)", "setting": "[2]", "result": 0.4, "unit": "µg/mL"},
      {"measurement": "EC50 (read off the curve)", "setting": "[3]", "result": 0.02, "unit": "µg/mL"},
      {"measurement": "EC50", "setting": "[4]", "result": 300, "unit": "pM"},
      {"measurement": "EC50", "setting": "[5]", "result": 116, "unit": "pM"},
      {"measurement": "EC50 (read off the curve)", "setting": "[6]", "result": "~0.04", "unit": "µg/mL"},
      {"measurement": "IC50", "setting": "[7]", "result": 2280, "unit": "pM"}
    ]}
  ]
}
